Assay results taken from US20230002480A1.

What was measured:
[1] = target: HIV-1 93TH057 gp120 coree (HIV-1); assay: PDB 3ngb structure, PISA interface
[2] = target: monomeric HIV-1 Ba-L gp120 (HIV-1 Ba-L); assay: retention on gp120 affinity column
[3] = target: HIV-1 Env of pseudovirus 191955_A11 (clade A, T/F) (HIV-1); assay: cell-based or functional assay
[4] = target: HIV-1 Env of pseudovirus 3016.v5.c45 (clade D) (HIV-1); assay: cell-based or functional assay
[5] = target: HIV-1 Env of pseudovirus 3103.v3.c10 (clade ACD) (HIV-1); assay: cell-based or functional assay
[6] = target: HIV-1 Env of pseudovirus 620345.c01 (clade CRF01_AE) (HIV-1); assay: cell-based or functional assay
[7] = target: HIV-1 Env of pseudovirus 62357_14_D3_4589 (clade B, T/F) (HIV-1); assay: cell-based or functional assay
[8] = target: HIV-1 Env of pseudovirus 6545.v4.c1 (HIV-1); assay: cell-based or functional assay
[9] = target: HIV-1 Env of pseudovirus 6952.v1.c20 (clade CD) (HIV-1); assay: cell-based or functional assay
[10] = target: HIV-1 Env of pseudovirus AC10.0.29 (clade B) (HIV-1); assay: cell-based or functional assay
[11] = target: HIV-1 Env of pseudovirus BJOX028000.10.3 (clade CRF01_AE, T/F) (HIV-1); assay: cell-based or functional assay
[12] = target: HIV-1 Env of pseudovirus CAP210.2.00.E8 (clade C) (HIV-1); assay: cell-based or functional assay
[13] = target: HIV-1 Env of pseudovirus CNE20 (clade BC) (HIV-1); assay: cell-based or functional assay
[14] = target: HIV-1 Env of pseudovirus Ce1086_B2 (clade C, T/F) (HIV-1); assay: cell-based or functional assay
[15] = target: HIV-1 Env of pseudovirus Ce1172_H1 (clade C, T/F) (HIV-1); assay: cell-based or functional assay
[16] = target: HIV-1 Env of pseudovirus Du172.17 (clade C) (HIV-1); assay: cell-based or functional assay
[17] = target: HIV-1 Env of pseudovirus Du422.1 (clade C) (HIV-1); assay: cell-based or functional assay
[18] = target: HIV-1 Env of pseudovirus PVO.4 (clade B) (HIV-1); assay: cell-based or functional assay
[19] = target: HIV-1 Env of pseudovirus Q259.d2.17 (clade A) (HIV-1); assay: cell-based or functional assay
[20] = target: HIV-1 Env of pseudovirus R1166.c01 (clade CRF01_AE) (HIV-1); assay: cell-based or functional assay
[21] = target: HIV-1 Env of pseudovirus T250-4 (clade CRF02_AG) (HIV-1); assay: cell-based or functional assay
[22] = target: HIV-1 Env of pseudovirus X1254_c3 (clade G) (HIV-1); assay: cell-based or functional assay
[23] = target: HIV-1 Env of pseudovirus X2088_c9 (clade G) (HIV-1); assay: cell-based or functional assay
[24] = target: MuLV Env pseudovirus (negative control) (MuLV); assay: cell-based or functional assay
[25] = target: HIV-1 93TH057 gp120 coree (HIV-1); assay: PDB 5te6 structure, PISA interface

VRC01 Fab
Ratio of OD/ID buried surface area [1]: 9.68
buried surface area, CDR H1 [1]: 3 Å^2
buried surface area, CDR H2 [1]: 598 Å^2
buried surface area, CDR L1 [1]: 50 Å^2
buried surface area, CDR L2 [1]: 0 Å^2
buried surface area, CDR L3 [1]: 132 Å^2
buried surface area, CDRH3 [1]: 160 Å^2
buried surface area, Fab heavy and light chain total [1]: 1200 Å^2
buried surface area, Fab heavy chain total [1]: 897 Å^2
buried surface area, Fab light chain total [1]: 306 Å^2
buried surface area, gp120 CD4 binding loop of OD [1]: 188 Å^2
buried surface area, gp120 Loop D of OD [1]: 322 Å^2
buried surface area, gp120 Loop V5 of OD [1]: 301 Å^2
buried surface area, gp120 inner domain (ID) [1]: 107 Å^2
buried surface area, gp120 outer domain (OD) [1]: 1040 Å^2
buried surface area, gp120 total [1]: 1140 Å^2
buried surface area, heavy chain FWR [1]: 136 Å^2
buried surface area, light chain FWR [1]: 124 Å^2

Synagis (antibody)
recovery from gp120 affinity column [2]: < 1%

N49P7-54TY (antibody)
IC50, titer in TZM.bl cells [3]: 3.04 µg/mL
IC80, titer in TZM.bl cells [3]: > 25 µg/mL
MPI [3]: 72
IC50, titer in TZM.bl cells [4]: 0.206 µg/mL
IC80, titer in TZM.bl cells [4]: 1.91 µg/mL
MPI [4]: 92
IC50, titer in TZM.bl cells [5]: 0.151 µg/mL
IC80, titer in TZM.bl cells [5]: 0.55 µg/mL
MPI [5]: 100
IC50, titer in TZM.bl cells [6]: > 25 µg/mL
IC80, titer in TZM.bl cells [6]: > 25 µg/mL
MPI [6]: 0
IC50, titer in TZM.bl cells [7]: 0.055 µg/mL
IC80, titer in TZM.bl cells [7]: 0.192 µg/mL
MPI [7]: 100
IC50, titer in TZM.bl cells [8]: 3.01 µg/mL
IC80, titer in TZM.bl cells [8]: > 25 µg/mL
MPI [8]: 74
IC50, titer in TZM.bl cells [9]: > 25 µg/mL
IC80, titer in TZM.bl cells [9]: > 25 µg/mL
MPI [9]: 20
IC50, titer in TZM.bl cells [10]: > 25 µg/mL
IC80, titer in TZM.bl cells [10]: > 25 µg/mL
MPI [10]: 40
IC50, titer in TZM.bl cells [11]: 0.009 µg/mL
IC80, titer in TZM.bl cells [11]: 0.044 µg/mL
MPI [11]: 100
IC50, titer in TZM.bl cells [12]: 0.691 µg/mL
IC80, titer in TZM.bl cells [12]: 3.33 µg/mL
MPI [12]: 97
IC50, titer in TZM.bl cells [13]: 0.046 µg/mL
IC80, titer in TZM.bl cells [13]: 0.16 µg/mL
MPI [13]: 100
IC50, titer in TZM.bl cells [14]: 0.067 µg/mL
IC80, titer in TZM.bl cells [14]: 0.339 µg/mL
MPI [14]: 100
IC50, titer in TZM.bl cells [15]: > 25 µg/mL
IC80, titer in TZM.bl cells [15]: > 25 µg/mL
MPI [15]: 23
IC50, titer in TZM.bl cells [16]: 0.124 µg/mL
IC80, titer in TZM.bl cells [16]: 0.529 µg/mL
MPI [16]: 100
IC50, titer in TZM.bl cells [17]: 0.402 µg/mL
IC80, titer in TZM.bl cells [17]: 2.02 µg/mL
MPI [17]: 96
IC50, titer in TZM.bl cells [18]: 0.079 µg/mL
IC80, titer in TZM.bl cells [18]: 0.314 µg/mL
MPI [18]: 100
IC50, titer in TZM.bl cells [19]: 0.132 µg/mL
IC80, titer in TZM.bl cells [19]: 1.13 µg/mL
MPI [19]: 95
IC50, titer in TZM.bl cells [20]: 0.131 µg/mL
IC80, titer in TZM.bl cells [20]: 0.47 µg/mL
MPI [20]: 100
IC50, titer in TZM.bl cells [21]: 1.02 µg/mL
IC80, titer in TZM.bl cells [21]: 19.6 µg/mL
MPI [21]: 83
IC50, titer in TZM.bl cells [22]: 0.145 µg/mL
IC80, titer in TZM.bl cells [22]: 0.599 µg/mL
MPI [22]: 100
IC50, titer in TZM.bl cells [23]: 0.172 µg/mL
IC80, titer in TZM.bl cells [23]: 0.572 µg/mL
MPI [23]: 100
IC50, titer in TZM.bl cells [24]: > 25 µg/mL
IC80, titer in TZM.bl cells [24]: > 25 µg/mL
MPI [24]: 0

N6 Fab
Ratio of OD/ID buried surface area [25]: 7.58
buried surface area, CDR H1 [25]: 38 Å^2
buried surface area, CDR H2 [25]: 621 Å^2
buried surface area, CDR L1 [25]: 43 Å^2
buried surface area, CDR L2 [25]: 0 Å^2
buried surface area, CDR L3 [25]: 172 Å^2
buried surface area, CDRH3 [25]: 123 Å^2
buried surface area, Fab heavy and light chain total [25]: 1180 Å^2
buried surface area, Fab heavy chain total [25]: 928 Å^2
buried surface area, Fab light chain total [25]: 251 Å^2
buried surface area, gp120 CD4 binding loop of OD [25]: 206 Å^2
buried surface area, gp120 Loop D of OD [25]: 332 Å^2
buried surface area, gp120 Loop V5 of OD [25]: 339 Å^2
buried surface area, gp120 inner domain (ID) [25]: 132 Å^2
buried surface area, gp120 outer domain (OD) [25]: 1000 Å^2
buried surface area, gp120 total [25]: 1130 Å^2
buried surface area, heavy chain FWR [25]: 146 Å^2
buried surface area, light chain FWR [25]: 36 Å^2

N49P7YTE (antibody)
IC50, titer in TZM.bl cells [3]: 39 µg/mL
IC80, titer in TZM.bl cells [3]: > 50 µg/mL
MPI [3]: 56
IC50, titer in TZM.bl cells [4]: 1.15 µg/mL
IC80, titer in TZM.bl cells [4]: 9.65 µg/mL
MPI [4]: 89
IC50, titer in TZM.bl cells [5]: 0.322 µg/mL
IC80, titer in TZM.bl cells [5]: 0.583 µg/mL
MPI [5]: 100
IC50, titer in TZM.bl cells [6]: > 50 µg/mL
IC80, titer in TZM.bl cells [6]: > 50 µg/mL
MPI [6]: 0
IC50, titer in TZM.bl cells [7]: 0.039 µg/mL
IC80, titer in TZM.bl cells [7]: 0.173 µg/mL
MPI [7]: 100
IC50, titer in TZM.bl cells [8]: > 50 µg/mL
IC80, titer in TZM.bl cells [8]: > 50 µg/mL
MPI [8]: 45
IC50, titer in TZM.bl cells [9]: > 50 µg/mL
IC80, titer in TZM.bl cells [9]: > 50 µg/mL
MPI [9]: 13
IC50, titer in TZM.bl cells [10]: > 50 µg/mL
IC80, titer in TZM.bl cells [10]: > 50 µg/mL
MPI [10]: 28
IC50, titer in TZM.bl cells [11]: 0.018 µg/mL
IC80, titer in TZM.bl cells [11]: 0.155 µg/mL
MPI [11]: 100
IC50, titer in TZM.bl cells [12]: 3.11 µg/mL
IC80, titer in TZM.bl cells [12]: 13.9 µg/mL
MPI [12]: 99
IC50, titer in TZM.bl cells [13]: 0.11 µg/mL
IC80, titer in TZM.bl cells [13]: 0.317 µg/mL
MPI [13]: 99
IC50, titer in TZM.bl cells [14]: 0.113 µg/mL
IC80, titer in TZM.bl cells [14]: 0.53 µg/mL
MPI [14]: 99
IC50, titer in TZM.bl cells [15]: > 50 µg/mL
IC80, titer in TZM.bl cells [15]: > 50 µg/mL
MPI [15]: 12
IC50, titer in TZM.bl cells [16]: 0.283 µg/mL
IC80, titer in TZM.bl cells [16]: 0.953 µg/mL
MPI [16]: 100
IC50, titer in TZM.bl cells [17]: 13.2 µg/mL
IC80, titer in TZM.bl cells [17]: > 50 µg/mL
MPI [17]: 76
IC50, titer in TZM.bl cells [18]: 0.088 µg/mL
IC80, titer in TZM.bl cells [18]: 0.394 µg/mL
MPI [18]: 100
IC50, titer in TZM.bl cells [19]: 5.34 µg/mL
IC80, titer in TZM.bl cells [19]: 44.1 µg/mL
MPI [19]: 82
IC50, titer in TZM.bl cells [20]: 0.232 µg/mL
IC80, titer in TZM.bl cells [20]: 0.782 µg/mL
MPI [20]: 100
IC50, titer in TZM.bl cells [21]: > 50 µg/mL
IC80, titer in TZM.bl cells [21]: > 50 µg/mL
MPI [21]: 43
IC50, titer in TZM.bl cells [22]: 26.2 µg/mL
IC80, titer in TZM.bl cells [22]: > 50 µg/mL
MPI [22]: 59
IC50, titer in TZM.bl cells [23]: 0.329 µg/mL
IC80, titer in TZM.bl cells [23]: 1.06 µg/mL
MPI [23]: 100
IC50, titer in TZM.bl cells [24]: > 50 µg/mL
IC80, titer in TZM.bl cells [24]: > 50 µg/mL
MPI [24]: 4
